This note sets out measurements from US20040073001A1 (Kyowa Kirin, published 2004).

T1: Mutated mouse β-catenin S33Y (mouse, UniProt Q02248 1-781)
T1 construct: Expressed from pMKITneo in COS-7 or NIH 3T3 cells; also called S33Y β-catenin
T1 sequence (looked up): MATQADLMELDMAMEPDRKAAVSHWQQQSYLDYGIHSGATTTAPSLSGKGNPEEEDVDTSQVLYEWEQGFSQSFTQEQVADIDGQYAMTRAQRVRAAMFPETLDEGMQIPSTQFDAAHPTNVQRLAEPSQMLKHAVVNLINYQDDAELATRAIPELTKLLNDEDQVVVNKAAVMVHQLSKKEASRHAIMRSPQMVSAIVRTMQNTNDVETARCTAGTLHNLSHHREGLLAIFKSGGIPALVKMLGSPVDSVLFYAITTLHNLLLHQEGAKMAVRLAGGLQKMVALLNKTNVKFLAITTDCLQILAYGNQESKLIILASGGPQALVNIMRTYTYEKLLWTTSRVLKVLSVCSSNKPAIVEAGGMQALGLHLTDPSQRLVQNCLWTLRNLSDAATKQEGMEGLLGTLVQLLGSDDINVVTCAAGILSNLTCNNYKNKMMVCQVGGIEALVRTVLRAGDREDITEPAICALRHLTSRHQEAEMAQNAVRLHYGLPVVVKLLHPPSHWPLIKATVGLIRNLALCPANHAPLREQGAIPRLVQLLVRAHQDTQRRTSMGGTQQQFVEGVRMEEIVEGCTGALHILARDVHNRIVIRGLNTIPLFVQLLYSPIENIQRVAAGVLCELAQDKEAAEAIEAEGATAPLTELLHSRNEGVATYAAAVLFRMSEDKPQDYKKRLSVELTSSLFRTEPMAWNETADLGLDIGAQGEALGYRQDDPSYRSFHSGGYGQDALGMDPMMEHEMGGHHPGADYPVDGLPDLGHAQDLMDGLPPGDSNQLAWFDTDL

B1: GAL4 AD fusion of B9L partial fragment, residues 245-439 of SEQ ID NO: 2 (other, not shown: large carriers)
chain: LANTAAEAVLQGRAESILAYHQQNVPRAKLDQAPKVPPTPEPLPLNTPSAGTPQSQPPPLPPPPPAPGSAPPALPPEGPPEDTSQDLAPNSVGAASTGGGTGGTHPNTPTAATANNPLPPGGDPGSAPGSALLGEATPTGNGQRNLVGSEGLSKEQLEHRERSLQTLRDIERLLLRSGETEPFLKGPPGGAGEGG
notes: Two-hybrid prey
B2: GAL4 AD fusion of B9L partial fragment, residues 292-564 of SEQ ID NO: 2 (other, not shown: large carriers)
chain: PSAGTPQSQPPPLPPPPPAPGSAPPALPPEGPPEDTSQDLAPNSVGAASTGGGTGGTHPNTPTAATANNPLPPGGDPGSAPGSALLGEATPTGNGQRNLVGSEGLSKEQLEHRERSLQTLRDIERLLLRSGETEPFLKGPPGGAGEGGPPAQAPSAAQPPPSAPPGGLKKYEEPLQSMISQTQSLGGPPLEHEVPGHPQGGDMGQQMNMMMQRLGQDSLTPEQVAWRKLQEEYYEEKRRKEEQIGLHGGRPLQDMVGMGGMMGRGPPPPYHSK
notes: Two-hybrid prey
B3: GAL4 AD fusion of B9L partial fragment, residues 440-564 of SEQ ID NO: 2 (other, not shown: large carriers)
chain: PPAQAPSAAQPPPSAPPGGLKKYEEPLQSMISQTQSLGGPPLEHEVPGHPQGGDMGQQMNMMMQRLGQDSLTPEQVAWRKLQEEYYEEKRRKEEQIGLHGGRPLQDMVGMGGMMGRGPPPPYHSK
notes: Two-hybrid prey
B4: GAL4 AD fusion of B9L partial fragment, residues 245-291 of SEQ ID NO: 2 (other, not shown: large carriers)
chain: LANTAAEAVLQGRAESILAYHQQNVPRAKLDQAPKVPPTPEPLPLNT
notes: Two-hybrid prey
B5: GAL4 AD fusion of B9L partial fragment, residues 292-439 of SEQ ID NO: 2 (other, not shown: large carriers)
chain: PSAGTPQSQPPPLPPPPPAPGSAPPALPPEGPPEDTSQDLAPNSVGAASTGGGTGGTHPNTPTAATANNPLPPGGDPGSAPGSALLGEATPTGNGQRNLVGSEGLSKEQLEHRERSLQTLRDIERLLLRSGETEPFLKGPPGGAGEGG
notes: Two-hybrid prey; also called B9L fragment of residues 292-439
B6: GFP-B9L fusion protein (B9L cDNA fragment, SEQ ID NO: 4, in pEGFP-C2) (other)
chain: LANTAAEAVLQGRAESILAYHQQNVPRAKLDQAPKVPPTPEPLPLNTPSAGTPQSQPPPLPPPPPAPGSAPPALPPEGPPEDTSQDLAPNSVGAASTGGGTGGTHPNTPTAATANNPLPPGGDPGSAPGSALLGEATPTGNGQRNLVGSEGLSKEQLEHRERSLQTLRDIERLLLRSGETEPFLKGPPGGAGEGGPPAQAPSAAQPPPSAPPGGLKKYEEPLQSMISQTQSLGGPPLEHEVPGHPQGGDMGQQMNMMMQRLGQDSLTPEQVAWRKLQEEYYEEKRRKEEQIGLHGGRPLQDMVGMGGMMGRGPPPPYHSK
notes: Expressed in COS-7 and NIH 3T3 cells; not shown: green fluorescent protein (GFP) as encoded by vector pEGFP-C2 (Clontech)

The first assay has as its target T2, GAL4-β-catenin fusion protein (GAL4 BD fused with mouse β-catenin armadillo domain, residues 128 to 683) (yeast; mouse, UniProt P04386 1-147; Q02248 128-683).
T2 construct: Bait of the yeast two-hybrid system; also called mβ-catenin arm; β-catenin arm bait plasmid
As to the kind of experiment: yeast two-hybrid, β-galactosidase activity. The text has this: The respective bait plasmids were cotransfected with the B9L cDNA fragment-expressing clone obtained by the two-hybrid system in Example 1 into yeast HF7C strain, and the binding between the B9L protein and the respective β-catenin partial fragments were examined by the existence of β-galactosidase activity in the transformants. […] Thus, it was considered that the B9L protein binds to the N-terminal region of β-catenin arm (armadillo repeats 1-6).
In order to further examine which region of the B9L protein binds to the β-catenin arm, two-hybrid system was performed as follows. […] Each plasmid was cotransfected with the β-catenin arm bait plasmid prepared in Example 1 into yeast HF7C strain, and the binding of each B9L protein partial fragment and β-catenin arm was examined based on the presence or absence of β-galactosidase activity in the transformants. […] Thus, the B9L protein was indicated to bind to the β-catenin arm at the region of residues 292-439 in the amino acid sequence represented by SEQ ID NO: 2.
As to B1, the binding result was “binds”.

Regarding B2, the binding result is reported as “binds”.

In the case of B3, the binding result is “no binding”.

On to B4, for which the binding result is on record as “no binding”.

As to B5, the binding result was “binds”.

The next assay concerns the target T1, Mutated mouse β-catenin S33Y. Put plainly: co-immunoprecipitation from COS-7 lysates with anti-GFP antibody, Western blotting with anti-β-catenin antibody. The text has this: The B9L cDNA fragment obtained in Example 1 was inserted into pEGFP-C2, green fluorescent protein (GFP) expression vector (Clontech), to construct an expression plasmid for GFP-B9L fusion protein (hereinafter abbreviated as GFP-B9L). Mutated mouse β-catenin S33Y cDNA wherein serine 33, the target site of GSK-3β-mediated phosphorylation, is substituted with tyrosine was subcloned into animal cell expression plasmid vector pMKITneo (Nakamura et al., Genes to cells 3: 395 (1998)) to construct an expression plasmid for S33Y β-catenin. These plasmids were transfected using LipofectAMINE (Life Technologies) into monkey kidney cell line COS-7 cells (ATCC: CRL-1651) for forced expression. After 24 hr, the cells were harvested to prepare cell lysates by adding buffer A containing 1% Triton X-100. The cell lysates were reacted with anti-GFP antibody or anti-β-catenin antibody at 4° C. for 1 hr to form an immune complex between GFP-B9L or S33Y β-catenin and the respective antibody, and then Protein G-Sepharose 4B (Amersham Pharmacia Biotech), which is capable of binding to IgG, was added to the reaction solution to adsorb the immune complex. The Protein G-Sepharose 4B was washed well with lysis buffer A, and SDS-PAGE sample buffer was added to elute the immune complex. […]
(A western blot detects proteins with antibodies after separation by electrophoresis.)
With B6, the binding result was “binds”.
